Assay results from patent US6207419A, “Thrombin inhibitory agents and methods of using same” (The University of North Carolina at Chapel Hill, priority 1999, dated 2001).

How the values were obtained:
[1] = system: chymotrypsin; assay: Chymotrypsin inhibition in the absence of glycosaminoglycan; type: biochemical
Protocol: Protease inhibition rates were determined as described previously (Rogers, S. J., Pratt, C. W., Whinna, H. C., and Church, F. C. (1992) J. Biol. Chem. 267(6), 3613-3617; Whinna, H. C., Choi, H. U., Rosenberg, L. C., and Church, F. C. (1993) J. Biol. Chem. 268, 3920-3924; Ciaccia, A. V., Cunningham, E. L., and Church, F. C. (1995) Protein Express. Purific. 6, 806-812; Ciaccia, A. V., Willemze, A. J., and Church, F. C. (1997) J. Biol. Chem. 272(2), 888-893). All assays were performed at room temperature in 96-well microtiter plates previously coated with 2 mg/mL BSA.
In the absence of glycosaminoglycan, 50-100 nM rHCII (wt, CHis6, CHis5 Pro, L444R, or L444R-CHis6) or rATIII (wt or CHis6) was incubated with 1 nM thrombin, 0.5 nM Factor Xa, 2 nM chymotrypsin, or 5 nM trypsin, in the presence of 1 mg/mL Polybrene (pB) (for thrombin and Factor Xa) and 2 mg/mL BSA in HNPN, pH 7.4.
Residual thrombin activity was measured with 150 μM GlyProArg-NA and 1 mg/mL pB in the absence of glycosaminoglycan, 2 mg/mL pB in the presence of heparin and 4 mg/mL in the presence of dermatan sulfate. Residual factor Xa activity was measured with 500 μM Spectrozyme FXa and 2mg/mL pB in the presence or absence of glycosaminoglycan. Residual chymotrypsin activity was measured with 150 μM AlaAlaProPhe-NA and residual trypsin activity was measured with 150 μM GlyProArg-NA. Substrate cleavage was measured by color development at […] on a Vmax Kinetic Microplate Reader (Molecular Devices).
Assays were performed at least in triplicate on two or more recombinant protein preparations. All inhibition studies were measured under pseudo-first order conditions where inhibitor [I] is at least ten-fold higher than enzyme (protease) [E], and second-order rate constants were calculated as described previously (Ciaccia, A. V., Cunningham, E. L., and Church, F. C. (1995) Protein Express. Purific. 6, 806-812; Ciaccia, A. V., Willemze, A. J., and Church, F. C. (1997) J. Biol. Chem. 272(2), 888-893).

[2] = system: plasma-purified α-thrombin; assay: Thrombin inhibition with heparin before and after carboxypeptidase A digest; type: biochemical, human; settings: 2 hr, room temperature, FIG. 3
Protocol: Forty ng of CPA was combined with approximately 1 μg of recombinant protein and incubated at room temperature. Following a 2-hr incubation at room temperature, 2 mM EDTA was added to quench CPA activity. Controls were run in which EDTA was added to the reaction prior to the addition of CPA. CPA digested proteins were then assayed according to previously mentioned procedures.

B1: rHCII-CHis6: Recombinant HCII with six histidine residues added at the carboxyl terminus; SEQ ID NO:5 (protein)
chain: MKHSLNALLIFLIITSAWGGSKGPLDQLEKGGETAQSADPQWEQLNNKNLSMPLLPADFHKENTVTNDWIPEGEEDDDYLDLEKIFSEDDDYIDIVDSLSVSPTDSDVSAGNILQLFHGKSRIQRLNILNAKFAFNLYRVLKDQVNTFDNIFIAPVGISTAMGMISLGLKGETHEQVHSILHFKDFVNASSKYEITTIHNLFRKLTHRLFRRNFGYTLRSVNDLYIQKQFPILLDFRTKVREYYFAEAQIADFSDPAFISKTNNHIMKLTKGLIKDALENIDPATQMMILNCIYFKGSWVNKFPVEMTHNHNFRLNEREVVKVSMMQTKGNFLAANDQELDCDILQLEYVGGISMLIVVPHKMSGMKTLEAQLTPRVVERWQKSMTNRTREVLLPKFKLEKNYNLVESLKLMGIRMLFDKNGNMAGISDQRIAIDLFKHQGTITVNEEGTQATTVTTVGFMPLSTQVRFTVDRPFLFLIYEHRTSCLLFMGRVANPSRSHHHHHH
modifications: C-terminal His6 tag
Ratio (mutant/wt serpin), chymotrypsin [1]: .860 | chymotrypsin inhibition compared with wt-rHCII, in words [1]: essentially the same | k2 × 10^4 (M^-1 min^-1), chymotrypsin ([1]; pH 7.4, mean ± S.D.): 61.0 ± 16 × 10^4 (M^-1 min^-1) | change of heparin-dependent thrombin inhibition after CPA digest, in words [2]: shifts to lower rates of inhibition
